Reference: patent US10654908B2, “Isolated T cell receptors and methods of use therefor” (University of Virginia Patent Foundation, priority 2014, dated 2020)

System: pIRS-2 pulsed C1R-A2 or C1R-AAD target cells
Test: IFN-γ ELISA of TCR-expressing human CD8 T-cells with pulsed C1R-A2 or C1R-AAD targets (pIRS-2)
Assay type: cell-based
Conditions: 18-20 hours co-culture
Method: Human CD8 T-cells were electroporated with IVT RNA encoding murine TCR αβ chains specific for pIRS-2 (pIRS2 BK TCR; FIG. 10A; SEQ ID NO: 2) or pDesmuslin (A10 (right to left hatched boxes) or A11 (left to right hatched boxes) TCR chains; FIG. 10B), and assayed 12-14 hours later. TCR-expressing human CD8 T-cells were co-cultured for 18-20 hours with C1R-A2 or C1R-AAD pulsed or unpulsed target cells. Supernatants were then harvested and IFN-γ was detected by ELISA. No RNA controls underwent electroporation with no addition of IVT RNA (open squares).

B1: pIRS2 BK TCR: second murine TCR specific for the IRS-2 phosphopeptide; α chain SEQ ID NO: 8, β chain SEQ ID NO: 10 (protein, listed as Mus musculus)
alpha: MLLALLPVLGIHFVLRDAQAQSVTQPDARVTVSEGASLQLRCKYSYSGTPYLFWYVQYPRQGLQLLLKYYSGDPVVQGVNGFEAEFIKSNSSFHLRKASVHWSDSAVYFCAVSAGSGGKLTLGAGTRLQVNLDIQNPEPAVYQLKDPRSQDSTLCLFTDFDSQVNVPKTMESGTFIADKTVLDMKAMDSKSNGAIAWSNQTSFTCQDIFKETNATYPSSDVPCDATLTEKSFETDMNLNFQNLSVMGLRILLLKVAGFNLLMTLRLWSS
beta: MGSRLFFVVLILLCAKHMEAAVTQSPRSKVAVTGGKVTLSCHQANNHDYMYWYRQDTGHGLRLIHYSYVADSTEKGDIPDGYKASRPSQENFSLILELASLSQTAVYFCASSDRDNYAEQFFGPGTRLTVLEDLRNVTPPKVSLFEPSKAEIANKQKATLVCLARGFFPDHVELSWWVNGKEVRSGVSTDPQAYKESNYSYCLSSRLRVSATFWHNPRNHFRCQVQFHGLSEEDKWPEGSPKPVTQNISAEAWGRADCGITSASYHQGVLSATILYEILLGKATLYAVLVSGLVLMAMVKKKNS
recognition of HLA-A2+ targets and effector function (IFN-γ ELISA): conferred recognition of HLA-A2+ targets and effector function
